Assay results taken from US20100297124A1 (published 2010).
Each block holds one binder with its values, some of them ahead of it.

Columns and labels:
[1] = target: T1, neuropilin 1 (NRP1) on human umbilical vein endothelial cells (HUVEC) (human, UniProt O14786 22-923); assay: flow cytometry, biotinylated VEGF165 (100 ng/ml) on HUVEC, avidin-FITC detection
T1 construct: whole, on cells; also called cell-surface NRP1
Experimental: (§1) The results shown in FIGS. 8-12 indicate that oligo(G) can promote the internalization of NRP1 by bridging NRP1 to the scavenger SREC-I receptor on endothelial cells. This should disrupt the binding of the NRP1 ligands Sema3A and VEGF165 to endothelial cells due to receptor internalization. To verify this hypothesis, HUVEC were incubated at 37° C. for 1 hour with or without phosphorothioate G18 (sG18) (4 or 16 μg/ml). Subsequently, the cells were washed and binding of Sema3A/Fc and biotin-labeled VEGF165 tested after incubation at 4° C. for 1 hour. Bound Sema3A/Fc was detected by flow cytometry after staining with FITC-conjugated goat anti-human IgG-Fc; bound VEGF165 was detected by flow cytometry after staining with avidin-FITC.

[2] = target: T1, neuropilin 1 (NRP1) on human umbilical …; assay: flow cytometry, Sema3A/Fc (2 µg/ml) on HUVEC, anti-human IgG Fc detection
Experimental: as §1

T1 sequence (O14786 22-923): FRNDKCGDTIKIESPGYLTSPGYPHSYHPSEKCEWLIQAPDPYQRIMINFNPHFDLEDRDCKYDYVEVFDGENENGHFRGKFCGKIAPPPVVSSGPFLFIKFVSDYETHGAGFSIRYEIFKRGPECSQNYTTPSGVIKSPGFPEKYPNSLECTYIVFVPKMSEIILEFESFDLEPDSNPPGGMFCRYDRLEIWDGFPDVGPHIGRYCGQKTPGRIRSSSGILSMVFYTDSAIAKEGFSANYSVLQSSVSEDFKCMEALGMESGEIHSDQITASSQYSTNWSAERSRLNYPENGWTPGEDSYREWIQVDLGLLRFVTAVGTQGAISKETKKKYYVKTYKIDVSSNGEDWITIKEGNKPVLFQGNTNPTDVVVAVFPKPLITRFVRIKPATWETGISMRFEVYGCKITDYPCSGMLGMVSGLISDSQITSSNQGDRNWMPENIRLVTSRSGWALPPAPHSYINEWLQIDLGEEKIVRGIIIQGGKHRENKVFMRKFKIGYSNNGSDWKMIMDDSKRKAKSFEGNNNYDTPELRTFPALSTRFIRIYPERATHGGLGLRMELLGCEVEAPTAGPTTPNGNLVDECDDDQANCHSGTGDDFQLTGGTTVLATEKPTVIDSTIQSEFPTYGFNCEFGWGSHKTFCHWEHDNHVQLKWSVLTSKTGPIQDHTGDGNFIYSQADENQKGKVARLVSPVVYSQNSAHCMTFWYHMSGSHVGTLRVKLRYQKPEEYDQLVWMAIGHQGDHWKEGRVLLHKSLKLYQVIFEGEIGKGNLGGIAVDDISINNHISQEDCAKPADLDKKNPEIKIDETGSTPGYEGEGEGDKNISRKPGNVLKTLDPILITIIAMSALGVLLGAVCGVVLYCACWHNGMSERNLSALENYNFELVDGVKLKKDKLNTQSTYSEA

binding result [1]: binds
B1: Recombinant human VEGF165 (biotinylated) (ligand, UniProt P15692-4 27-191, looked up)
chain: APMAEGGGQNHHEVVKFMDVYQRSYCHPIETLVDIFQEYPDEIEYIFKPSCVPLMRCGGCCNDEGLECVPTEESNITMQIMRIKPHQGQHIGEMSFLQHNKCECRPKKDRARQENPCGPCSERRKHLFVQDPQTCKCSCKNTDSRCKARQLELNERTCRCDKPRR
modifications: biotinylated (sites not given)
notes: Commercial reagent (R&D Systems); also called biotin-VEGF165; biotin-labeled VEGF165

binding result [2]: binds
B2: human Sema3A/Fc (Fc fusion, UniProt Q14563 26-771, looked up)
chain: KNNVPRLKLSYKEMLESNNVITFNGLANSSSYHTFLLDEERSRLYVGAKDHIFSFDLVNIKDFQKIVWPVSYTRRDECKWAGKDILKECANFIKVLKAYNQTHLYACGTGAFHPICTYIEIGHHPEDNIFKLENSHFENGRGKSPYDPKLLTASLLIDGELYSGTAADFMGRDFAIFRTLGHHHPIRTEQHDSRWLNDPKFISAHLISESDNPEDDKVYFFFRENAIDGEHSGKATHARIGQICKNDFGGHRSLVNKWTTFLKARLICSVPGPNGIDTHFDELQDVFLMNFKDPKNPVVYGVFTTSSNIFKGSAVCMYSMSDVRRVFLGPYAHRDGPNYQWVPYQGRVPYPRPGTCPSKTFGGFDSTKDLPDDVITFARSHPAMYNPVFPMNNRPIVIKTDVNYQFTQIVVDRVDAEDGQYDVMFIGTDVGTVLKVVSIPKETWYDLEEVLLEEMTVFREPTAISAMELSTKQQQLYIGSTAGVAQLPLHRCDIYGKACAECCLARDPYCAWDGSACSRYFPTAKRRTRRQDIRNGDPLTHCSDLHHDNHHGHSPEERIIYGVENSSTFLECSPKSQRALVYWQFQRRNEERKEEIRVDDHIIRTDQGLLLRSLQQKDSGNYLCHAVEHGFIQTLLKVTLEVIDTEHLEELLHKDDDGDGSKTKEMSNSMTPSQKVWYRDFMQLINHPNLNTMDEFCEQVWKRDRKQRRQRPGHTPGNSNKWKHLQENKKGRNRRTHEFERAPRSV
notes: Commercial reagent (R&D Systems); not shown: Fc portion
